Source: patent US20230051715A1 (MABWELL THERAPEUTICS, published 2023)
Positions count from the first letter of the chain named. Names may count otherwise.

B1: Anti-C1s antibody hz2-7(H1L2) (antibody, V domains shown)
VH: EVQLLESGGGLVQPGGSLRLSCAASGFTFSNYFMNWVRQAPGKGLEWVSEIRLKFTNYATHYADSVKGRFTISRDDSKSTLYLQMNSLRAEDTAVYYCTRDYGSRNGYFDYWGQGTLVTVSS
VL: DIVMTQTPLSLPVTPGEPASISCRSSKSLLHSNGNTFLYWFLQKPGQSPQLLIYRMSNLASGVPDRFSGSGSGTDFTLKISRVEAEDVGVYYCMQHLEYPYTFGGGTKLEIKR
notes: Humanized, human IgG1 / kappa; also called hz2-7(1L2)
B2: Anti-C1s antibody hz2-8 (H1L2 G80A) (antibody, V domains shown)
VH: QVQLVQSGAEVKKPGASVKVSCKASGFNIKEYYMHWVRQAPEQGLEWMGWIDPENADTIYAQKFQGRVTITADTSTNTAYMELSSLRSEDTAVYYCARSRLFFAYWGQGTLVTVSS
VL: DIQMTQSPKSLSASVGDRVTITCRASQDVRTALDWYQQKPGQSPKLLIYSASYRYSGVPSRFSGSGSGTDFTLTISSLQPEDFATYYCQQQYTTPYTFGQGTKLEIKR
notes: Humanized variant with G80A in HC CDR2 (already in the entry), human IgG1 / kappa
B3: Anti-C1s antibody hz2-8 (H1L2 G80A/T82A) (antibody, V domains shown)
VH: B2 VH with T58A
VL: B2 VL
notes: Humanized variant with G80A and T82A in HC CDR2 (already in the entry), human IgG1 / kappa

Experiments:
[1] = target: T1, human C1s mutant M1 (M277I) (human, UniProt P09871 16-688); assay: ELISA, plate coated with human C1s mutant M1: M277I, OD450nm
T1 construct: The entry is the mutant itself
T1 sequence: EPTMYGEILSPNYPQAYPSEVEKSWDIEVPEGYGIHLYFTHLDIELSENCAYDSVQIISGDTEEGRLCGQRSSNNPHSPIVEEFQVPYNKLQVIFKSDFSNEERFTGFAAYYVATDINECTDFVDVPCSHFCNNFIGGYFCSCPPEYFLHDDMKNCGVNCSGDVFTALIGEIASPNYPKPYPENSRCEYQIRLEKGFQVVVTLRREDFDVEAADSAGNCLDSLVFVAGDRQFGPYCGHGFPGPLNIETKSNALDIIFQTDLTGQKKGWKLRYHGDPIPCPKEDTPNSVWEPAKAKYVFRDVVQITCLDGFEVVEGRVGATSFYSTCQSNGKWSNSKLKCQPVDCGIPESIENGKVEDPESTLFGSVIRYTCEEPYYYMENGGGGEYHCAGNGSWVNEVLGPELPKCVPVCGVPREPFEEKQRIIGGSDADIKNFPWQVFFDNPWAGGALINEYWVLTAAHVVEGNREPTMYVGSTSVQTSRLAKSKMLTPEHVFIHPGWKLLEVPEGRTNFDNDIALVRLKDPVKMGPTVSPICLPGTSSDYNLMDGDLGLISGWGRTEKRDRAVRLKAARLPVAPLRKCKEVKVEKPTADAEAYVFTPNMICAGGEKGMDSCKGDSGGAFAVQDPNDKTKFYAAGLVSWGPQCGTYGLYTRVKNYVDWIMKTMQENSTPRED
Procedure: (§1) ELISA was carried out by first coating 96-well plates with 200 ng/well of full-length or truncated C1s proteins overnight. The next morning, plates were blocked with SuperBlock T20 blocking buffer (Thermo Scientific 37536) for 1 h with gentle shaking. Then, various concentrations of anti-C1s antibodies diluted in SuperBlock T20 blocking buffer were added to the plates and incubated for 1 h with gentle shaking. Mouse IgG (Sigma-Aldrich 15381) and human IgG1 (BioXCell BP0297) were used as negative controls. The plates were washed before incubating with HRP conjugated secondary antibodies diluted in SuperBlock T20 blocking buffer (goat anti-mouse IgG (H+L) cross-adsorbed secondary antibody HRP (Invitrogen G-21040) or goat anti-human IgG antibody, HRP conjugate (Millipore AP309P)) for 1 h with gentle shaking. At last, the plates were washed and color developed with ELISA liquid HRP substrate (Sigma-Aldrich), followed by stopping the reaction with addition of 1M H₂SO₄ in the same volume as the ELISA liquid substrate. Bound antibody was measured by absorbance at OD₄₅₀ₙₘ.
(§2) Binding of anti-C1s antibodies to mutants M1-M20 of human C1s was measured by ELISA as described in Example 4, and results are shown in FIGS. 6B-6U. All anti-C1s humanized variants including hz2-7(H1L2), hz2-8(H1L2 G80A) and hz2-8(H1L2 G80A/T82A) maintained strong binding properties to the majority (16 out of 20) of C1s mutants including M1 (FIG. 6B), M2 (FIG. 6C), M3 (FIG. 6D). M4 (FIG. 6E), M7 (FIG. 6H), M8 (FIG. 6I), M10 (FIG. 6K), M11 (FIG. 6L), M12 (FIG. 6M), M13 (FIG. 6N), M15 (FIG. 6P), M16 (FIG. 6Q), M17 (FIG. 6R), M18 (FIG. 6S), M19 (FIG. 6T) and M20 (FIG. 6U).

[2] = target: T2, human C1s mutant M4 (P280A & E282K) (human, UniProt P09871 16-688); assay: ELISA, plate coated with human C1s mutant M4: P280A, E282K, OD450nm
T2 construct: The entry is the mutant itself
T2 sequence: T1 sequence with I277M, P280A, E282K
Procedure: as §1, §2

[3] = target: T3, human C1s mutant M10 (D283I & P285A) (human, UniProt P09871 16-688); assay: ELISA, plate coated with human C1s mutant M10: D283I, P285A, OD450nm
T3 construct: The entry is the mutant itself
T3 sequence: T1 sequence with I277M, D283I, P285A
Procedure: as §1, §2

Row | Binder | EC50 [1] [ng/mL] | EC50 [2] [ng/mL] | EC50 [3] [ng/mL]
1 | B1 | 9 | 13 | 6
2 | B2 | 7 | 10 | 5
3 | B3 | 5 | 10 | 6
